Experimental data as given in patent US20140051633A1.

What was measured:
[1] = biological target: human Hepatocyte Growth Factor (HGF) (human) (UniProt P14210); test: competition with ^3H-Hinge for soluble HGF (1.25 ng), Bio-Gel P6 spin columns, scintillation counting
[2] = biological target: human Hepatocyte Growth Factor (HGF) (human) (UniProt P14210); test: competition with ^3H-Hinge for soluble HGF
[3] = biological target: Hepatocyte Growth Factor (HGF), species not stated (Homo sapiens (Human)) (UniProt P14210); test: ^3H Dihexa incubated with different concentrations of HGF, Biogel P6 columns, scintillation counting
Hepatocyte Growth Factor (HGF), species not stated (Homo sapiens (Human)), sequence (P14210 32-494 limits assumed, form in doubt, chain 1 of 2): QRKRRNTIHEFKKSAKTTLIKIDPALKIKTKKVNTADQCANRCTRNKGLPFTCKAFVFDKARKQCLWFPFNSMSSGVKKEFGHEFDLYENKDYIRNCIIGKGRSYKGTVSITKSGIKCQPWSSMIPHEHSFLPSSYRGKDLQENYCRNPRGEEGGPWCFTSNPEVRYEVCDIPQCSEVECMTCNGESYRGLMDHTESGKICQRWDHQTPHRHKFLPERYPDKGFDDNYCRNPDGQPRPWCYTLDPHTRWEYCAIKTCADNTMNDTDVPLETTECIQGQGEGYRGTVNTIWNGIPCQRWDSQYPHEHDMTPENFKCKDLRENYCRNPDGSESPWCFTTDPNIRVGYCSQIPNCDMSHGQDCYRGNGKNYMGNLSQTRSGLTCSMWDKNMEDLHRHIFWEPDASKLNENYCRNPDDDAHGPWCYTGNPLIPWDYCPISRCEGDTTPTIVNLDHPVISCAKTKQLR
Hepatocyte Growth Factor (HGF), species not stated (Homo sapiens (Human)), sequence (P14210 495-728 limits assumed, form in doubt, chain 2 of 2): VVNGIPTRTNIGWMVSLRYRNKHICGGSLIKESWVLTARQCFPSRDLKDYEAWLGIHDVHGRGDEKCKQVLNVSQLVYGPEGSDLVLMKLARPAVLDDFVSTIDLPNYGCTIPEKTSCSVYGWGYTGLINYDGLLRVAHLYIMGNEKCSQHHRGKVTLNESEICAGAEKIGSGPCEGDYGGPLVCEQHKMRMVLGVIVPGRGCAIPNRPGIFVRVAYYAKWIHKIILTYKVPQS

[4] = biological target: Hepatocyte Growth Factor (HGF), species not stated (Homo sapiens (Human)) (UniProt P14210); test: ^3H Dihexa binding to HGF (FIG. 43), repeated in the text

human Hepatocyte Growth Factor (HGF) (human), sequence (P14210 32-728 limits assumed): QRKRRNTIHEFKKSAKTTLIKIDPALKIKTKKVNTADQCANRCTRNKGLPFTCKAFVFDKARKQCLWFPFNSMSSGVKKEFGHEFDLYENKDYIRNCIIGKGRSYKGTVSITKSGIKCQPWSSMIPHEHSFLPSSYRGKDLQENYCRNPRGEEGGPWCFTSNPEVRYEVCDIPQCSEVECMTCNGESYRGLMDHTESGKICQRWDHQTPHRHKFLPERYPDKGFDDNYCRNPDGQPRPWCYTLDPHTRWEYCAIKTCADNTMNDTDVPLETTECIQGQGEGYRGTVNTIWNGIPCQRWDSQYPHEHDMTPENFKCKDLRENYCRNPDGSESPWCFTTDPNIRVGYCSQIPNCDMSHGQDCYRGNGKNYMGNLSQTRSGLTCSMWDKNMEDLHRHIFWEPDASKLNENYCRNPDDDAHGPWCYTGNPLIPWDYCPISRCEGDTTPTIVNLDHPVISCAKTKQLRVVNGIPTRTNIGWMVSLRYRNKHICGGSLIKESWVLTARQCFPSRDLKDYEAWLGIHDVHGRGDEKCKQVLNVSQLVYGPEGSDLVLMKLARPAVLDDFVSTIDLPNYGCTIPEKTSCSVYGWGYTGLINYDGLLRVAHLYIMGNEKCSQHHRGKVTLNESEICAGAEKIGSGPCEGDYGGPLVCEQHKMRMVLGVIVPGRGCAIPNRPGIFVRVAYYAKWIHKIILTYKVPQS

Substance	Ki [1]	Ki [2]	Kd [3]	Kd [4]
D-Nle-Cys-Ile-NH-(CH2)5-CONH2 (peptide)	0.133 nM	0.133 nM	–	–
D-Nle-Met-Ile-NH-(CH2)5-CONH2 (peptide)	138 nM	137 nM	–	–
D-Nle-Trp-Ile-NH-(CH2)5-CONH2 (peptide)	3.37 nM	–	–	–
Dihexa (N-hexanoic-Tyr-Ile-(6)-aminohexanoic amide) (peptide)	–	–	0.000221 nM	0.00022 nM
